Laboratory results: patent publication WO2021160116A1 (dated 2021)

Molecular target: T1, human FcRn-β2M complex (human FcRn extracellular region with His-tagged human β2M) (human, UniProt P55899 24-297; P61769 21-119, randomly biotinylated in the ELISA (biotin-hFcRn))
T1 construct: Purified by Ni-Sepharose and Superdex200; Used biotinylated in the ELISA and as analyte in Biacore; also called FcRn antigen; hFcRn; not shown: His tag
Experiment: ELISA, biotin-hFcRn on NeutrAvidin plate, pH 6.0

EC50: 0.9 µg/mL
B1: Argx-113 (other)
chain: DKTHTCPPCPAPELLGGPSVFLFPPKPKDTLYITREPEVTCVVVDVSHEDPEVKFNWYVDGVEVHNAKTKPREEQYNSTYRVVSVLTVLHQDWLNGKEYKCKVSNKALPAPIEKTISKAKGQPREPQVYTLPPSRDELTKNQVSLTCLVKGFYPSDIAVEWESNGQPENNYKTTPPVLDSDGSFFLYSKLTVDKSRWQQGNVFSCSVMHEALKFHYTQKSLSLSPGK
